Data published in paper PMC4703834.

Biological target: Δ4-DgkA (thermostable mutant of Escherichia coli diacylglycerol kinase) (Escherichia coli) (UniProt P0ABN1)
Test: crystal structure; in meso (lipid cubic phase) crystals of Δ4-DgkA in 9.9 MAG at 4 °C, soaked with zinc-ACP (ternary complex, 2.7 Å) or without nucleotide; synchrotron data at 100 K

Δ4-DgkA (thermostable mutant of Escherichia coli diacylglycerol kinase) (from UniProt P0ABN1 2-122) (enzyme)
stoichiometry N: 3
